The text below walks through data of IntAct's records for PubMed 25502805.

B1: Peroxisomal biogenesis factor 3 (Homo sapiens), P56589 (parent)
chain: MLRSVWNFLKRHKKKCIFLGTVLGGVYILGKYGQKKIREIQEREAAEYIAQARRQYHFESNQRTCNMTVLSMLPTLREALMQQLNSESLTALLKNRPSNKLEIWEDLKIISFTRSTVAVYSTCMLVVLLRVQLNIIGGYIYLDNAAVGKNGTTILAPPDVQQQYLSSIQHLLGDGLTELITVIKQAVQKVLGSVSLKHSLSLLDLEQKLKEIRNLVEQHKSSSWINKDGSKPLLCHYMMPDEETPLAVQACGLSPRDITTIKLLNETRDMLESPDFSTVLNTCLNRGFSRLLDNMAEFFRPTEQDLQHGNSMNSLSSVSLPLAKIIPIVNGQIHSVCSETPSHFVQDLLTMEQVKDFAANVYEAFSTPQQLEK
partner: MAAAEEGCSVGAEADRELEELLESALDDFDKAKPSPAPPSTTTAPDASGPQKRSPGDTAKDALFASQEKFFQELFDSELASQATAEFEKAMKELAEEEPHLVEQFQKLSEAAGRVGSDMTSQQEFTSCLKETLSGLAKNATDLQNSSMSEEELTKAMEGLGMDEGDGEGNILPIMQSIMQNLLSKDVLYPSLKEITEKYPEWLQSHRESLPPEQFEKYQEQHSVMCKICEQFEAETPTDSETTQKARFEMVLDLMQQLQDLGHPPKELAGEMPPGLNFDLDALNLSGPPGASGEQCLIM
B2: pre-mRNA splicing regulator USH1G (Homo sapiens), Q495M9 (parent)
chain: MNDQYHRAARDGYLELLKEATRKELNAPDEDGMTPTLWAAYHGNLESLRLIVSRGGDPDKCDIWGNTPLHLAASNGHLHCLSFLVSFGANIWCLDNDYHTPLDMAAMKGHMECVRYLDSIAAKQSSLNPKLVGKLKDKAFREAERRIRECAKLQRRHHERMERRYRRELAERSDTLSFSSLTSSTLSRRLQHLALGSHLPYSQATLHGTARGKTKMQKKLERRKQGGEGTFKVSEDGRKSARSLSGLQLGSDVMFVRQGTYANPKEWGRAPLRDMFLSDEDSVSRATLAAEPAHSEVSTDSGHDSLFTRPGLGTMVFRRNYLSSGLHGLGREDGGLDGVGAPRGRLQSSPSLDDDSLGSANSLQDRSCGEELPWDELDLGLDEDLEPETSPLETFLASLHMEDFAALLRQEKIDLEALMLCSDLDLRSISVPLGPRKKILGAVRRRRQAMERPPALEDTEL
partner: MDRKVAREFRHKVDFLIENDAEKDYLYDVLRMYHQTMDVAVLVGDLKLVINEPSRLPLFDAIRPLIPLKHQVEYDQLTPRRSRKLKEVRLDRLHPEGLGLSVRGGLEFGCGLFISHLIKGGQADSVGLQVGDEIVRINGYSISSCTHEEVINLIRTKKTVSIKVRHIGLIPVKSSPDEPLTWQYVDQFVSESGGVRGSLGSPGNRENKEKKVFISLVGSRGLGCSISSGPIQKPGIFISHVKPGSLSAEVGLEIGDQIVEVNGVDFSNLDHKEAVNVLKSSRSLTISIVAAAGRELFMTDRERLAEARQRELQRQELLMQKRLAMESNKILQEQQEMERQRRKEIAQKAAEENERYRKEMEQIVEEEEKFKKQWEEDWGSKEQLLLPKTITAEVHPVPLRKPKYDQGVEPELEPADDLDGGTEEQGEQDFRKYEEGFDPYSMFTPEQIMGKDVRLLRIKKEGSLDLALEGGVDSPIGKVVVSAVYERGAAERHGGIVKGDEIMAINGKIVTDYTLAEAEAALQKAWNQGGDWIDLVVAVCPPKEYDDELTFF
B3: Kelch-like protein 3 (Homo sapiens), Q9UH77 (parent)
chain: MEGESVKLSSQTLIQAGDDEKNQRTITVNPAHMGKAFKVMNELRSKQLLCDVMIVAEDVEIEAHRVVLAACSPYFCAMFTGDMSESKAKKIEIKDVDGQTLSKLIDYIYTAEIEVTEENVQVLLPAASLLQLMDVRQNCCDFLQSQLHPTNCLGIRAFADVHTCTDLLQQANAYAEQHFPEVMLGEEFLSLSLDQVCSLISSDKLTVSSEEKVFEAVISWINYEKETRLEHMAKLMEHVRLPLLPRDYLVQTVEEEALIKNNNTCKDFLIEAMKYHLLPLDQRLLIKNPRTKPRTPVSLPKVMIVVGGQAPKAIRSVECYDFEEDRWDQIAELPSRRCRAGVVFMAGHVYAVGGFNGSLRVRTVDVYDGVKDQWTSIASMQERRSTLGAAVLNDLLYAVGGFDGSTGLASVEAYSYKTNEWFFVAPMNTRRSSVGVGVVEGKLYAVGGYDGASRQCLSTVEQYNPATNEWIYVADMSTRRSGAGVGVLSGQLYATGGHDGPLVRKSVEVYDPGTNTWKQVADMNMCRRNAGVCAVNGLLYVVGGDDGSCNLASVEYYNPVTDKWTLLPTNMSTGRSYAGVAVIHKSL

The variants in one assay derive from B1. Particulars: with pex19_human PEX19, P40855.
For MLRSVWNFLKRHKKKCIFLGTVLGGVYILGKYGQKKIREIQEREAAEYIAQARRQYHFESNQRTCNMTVLSMLPTLREALMQQLNSESLTALLKNRPSNKLEIWEDLKIISFTRSTVAVYSTCMLVVLLRVQLNIIGGYIYLDNAAVGKNGTTILAPPDVQQQYLSSIQHLLGDGLTELITVIKQAVQKVLGSVSLKHSLSLLDLEQKLKEIRNLVEQHKSSSWINKDGSKPLLCHYMMPDEETPLAVQACGLSPRDITTIKLLNETRDMLESPDFSTVLNTCLNRGFSRLLDNMAEFFRPTEQDLQHGNSMNSLSSVSLPLAKIIPIVNGQIHSVCSETPSHFVQYLLTMEQVKDFAANVYEAFSTPQQLEK [D347Y], the “effect of a mutation on the interaction” value was “with no effect”.

The variants in the next assay derive from B2. Particulars: with ush1c_human USH1C.
With MNDQYHRAARDGYLEVLKEATRKELNAPDEDGMTPTLWAAYHGNLESLRLIVSRGGDPDKCDIWGNTPLHLAASNGHLHCLSFLVSFGANIWCLDNDYHTPLDMAAMKGHMECVRYLDSIAAKQSSLNPKLVGKLKDKAFREAERRIRECAKLQRRHHERMERRYRRELAERSDTLSFSSLTSSTLSRRLQHLALGSHLPYSQATLHGTARGKTKMQKKLERRKQGGEGTFKVSEDGRKSARSLSGLQLGSDVMFVRQGTYANPKEWGRAPLRDMFLSDEDSVSRATLAAEPAHSEVSTDSGHDSLFTRPGLGTMVFRRNYLSSGLHGLGREDGGLDGVGAPRGRLQSSPSLDDDSLGSANSLQDRSCGEELPWDELDLGLDEDLEPETSPLETFLASLHMEDFAALLRQEKIDLEALMLCSDLDLRSISVPLGPRKKILGAVRRRRQAMERPPALEDTEL [L16V], the “effect of a mutation on the interaction” value is “with no effect”.

For MNDQYHRAARDGYLELLKEATRKELNAPDEDGMTPTLWAAYHGNLESPRLIVSRGGDPDKCDIWGNTPLHLAASNGHLHCLSFLVSFGANIWCLDNDYHTPLDMAAMKGHMECVRYLDSIAAKQSSLNPKLVGKLKDKAFREAERRIRECAKLQRRHHERMERRYRRELAERSDTLSFSSLTSSTLSRRLQHLALGSHLPYSQATLHGTARGKTKMQKKLERRKQGGEGTFKVSEDGRKSARSLSGLQLGSDVMFVRQGTYANPKEWGRAPLRDMFLSDEDSVSRATLAAEPAHSEVSTDSGHDSLFTRPGLGTMVFRRNYLSSGLHGLGREDGGLDGVGAPRGRLQSSPSLDDDSLGSANSLQDRSCGEELPWDELDLGLDEDLEPETSPLETFLASLHMEDFAALLRQEKIDLEALMLCSDLDLRSISVPLGPRKKILGAVRRRRQAMERPPALEDTEL [L48P], the “effect of a mutation on the interaction” value was “with no effect”.

In a further assay the parent is B3. Particulars: with cul3_human CUL3, Q13618.
Consider MEGESVKLSSQTLIQAGDDEKNQRTITVNPAHMGKAFKVMNELRSKQLLCDVMIVAEDVEIEAHRVVLAACSPYFCAMFTGDMSESKAKKIEIKDVDGQTLSKLIDYIYTAEIEVTEENVQVLLPAASLLQLMDVRQNCCDFLQSQLHPTNCLGIRAFADVHTCTDLLQQANAYAEQHFPEVMLGEEFLSLSLDQVCSLISSDKLTVSSEEKVFEAVISWINYEKETGLEHMAKLMEHVRLPLLPRDYLVQTVEEEALIKNNNTCKDFLIEAMKYHLLPLDQRLLIKNPRTKPRTPVSLPKVMIVVGGQAPKAIRSVECYDFEEDRWDQIAELPSRRCRAGVVFMAGHVYAVGGFNGSLRVRTVDVYDGVKDQWTSIASMQERRSTLGAAVLNDLLYAVGGFDGSTGLASVEAYSYKTNEWFFVAPMNTRRSSVGVGVVEGKLYAVGGYDGASRQCLSTVEQYNPATNEWIYVADMSTRRSGAGVGVLSGQLYATGGHDGPLVRKSVEVYDPGTNTWKQVADMNMCRRNAGVCAVNGLLYVVGGDDGSCNLASVEYYNPVTDKWTLLPTNMSTGRSYAGVAVIHKSL [R228G], for which the “effect of a mutation on the interaction” value is on record as “disrupting interaction strength”.

For MEGESVKLSSQTLIQAGDDEKNQRTITVNPAHMGKAFKVMNELRSKQLLCDVMIVAEDVEIEAHRVVLAACSPYFCAMFTGDMSESKAKKIEIKDVDGQTLSKLIDYIYTAEIEVTEENVQVLLPAASLLQLMDVRQNCCDFLQSQLHPTNCLGIRAFADVHTFTDLLQQANAYAEQHFPEVMLGEEFLSLSLDQVCSLISSDKLTVSSEEKVFEAVISWINYEKETRLEHMAKLMEHVRLPLLPRDYLVQTVEEEALIKNNNTCKDFLIEAMKYHLLPLDQRLLIKNPRTKPRTPVSLPKVMIVVGGQAPKAIRSVECYDFEEDRWDQIAELPSRRCRAGVVFMAGHVYAVGGFNGSLRVRTVDVYDGVKDQWTSIASMQERRSTLGAAVLNDLLYAVGGFDGSTGLASVEAYSYKTNEWFFVAPMNTRRSSVGVGVVEGKLYAVGGYDGASRQCLSTVEQYNPATNEWIYVADMSTRRSGAGVGVLSGQLYATGGHDGPLVRKSVEVYDPGTNTWKQVADMNMCRRNAGVCAVNGLLYVVGGDDGSCNLASVEYYNPVTDKWTLLPTNMSTGRSYAGVAVIHKSL [C164F], the “effect of a mutation on the interaction” value was “disrupting interaction strength”.
